Assays:
[1] = molecular target: the molecule itself; experiment: SEC; Superdex 200 10/300 GL; ligand-active receptor in running buffer 150 mM NaCl, 50 mM sodium phosphate, 10% glycerol, 0.1% DDM, 0.1% CHAPS, 0.02% CHS, pH 8.0; 4°C; HMW oligomer and dimer peak areas (Gaussian fit) relative to the monomer peak
P29274 = experiment: as above
[2] = molecular target: the molecule itself; experiment: SDS-PAGE and western blot densitometry of SEC-separated dimer; SEC-separated dimers incubated without or with 5 mM TCEP, then SDS-PAGE and western blot; dimer band area relative to monomer band area
[3] = molecular target: the molecule itself; experiment: SEC; consecutive rounds of SEC: a first round separates monomer from dimer/oligomer, a second round is run on the SEC-separated populations; total oligomer level relative to the monomer

B1: A2AR-FL-ERR:AAA (receptor, human, UniProt P29274 1-412, looked up)
chain: MPIMGSSVYITVELAIAVLAILGNVLVCWAVWLNSNLQNVTNYFVVSLAAADIAVGVLAIPFAITISTGFCAACHGCLFIACFVLVLTQSSIFSLLAIAIDRYIAIRIPLRYNGLVTGTRAKGIIAICWVLSFAIGLTPMLGWNNCGQPKEGKNHSQGCGEGQVACLFEDVVPMNYMVYFNFFACVLVPLLLMLGVYLRIFLAARRQLKQMESQPLPGERARSTLQKEVHAAKSLAIIVGLFALCWLPLHIINCFTFFCPDCSHAPLWLMYLAIVLSHTNSVVNPFIYAYRIREFRQTFRKIIRSHVLRQQEPFKAAGTSARVLAAHGSDGEQVSLRLNGHPPGVWANGSAPHPAAAPNGYALGLVSGGSAQESQGNTGLPDVELLSHELKGVCPEPPGLDDPLAQDGAGVS
notes: adenosine A2A receptor, human, full length, residues 355ERR357 substituted by 355AAA357; also called A2AR-ERR:AAA variant of A2AR-FL-WT
B1 was tested, and the “dimer level (relative to monomer)” value [1] was 0.29 arbitrary units, the “total oligomer level (relative to monomer)” value [1] was 0.94 arbitrary units and the “HMW oligomer level (relative to monomer)” value (P29274) was “ERR:AAA: 0.66”.

B2: A2AR-N359ΔC (protein)
chain: MPIMGSSVYITVELAIAVLAILGNVLVCWAVWLNSNLQNVTNYFVVSLAAADIAVGVLAIPFAITISTGFCAACHGCLFIACFVLVLTQSSIFSLLAIAIDRYIAIRIPLRYNGLVTGTRAKGIIAICWVLSFAIGLTPMLGWNNCGQPKEGKNHSQGCGEGQVACLFEDVVPMNYMVYFNFFACVLVPLLLMLGVYLRIFLAARRQLKQMESQPLPGERARSTLQKEVHAAKSLAIIVGLFALCWLPLHIINCFTFFCPDCSHAPLWLMYLAIVLSHTNSVVNPFIYAYRIREFRQTFRKIIRSHVLRQQEPFKAAGTSARVLAAHGSDGEQVSLRLNGHPPGVWANGSAPHPERRPN
For B2, the “HMW oligomer level (relative to monomer)” value (P29274) was “ctrl: 0.68”.

B3: A2AR-N359ΔC with the ERR:AAA mutations (domain or fragment, human, UniProt P29274 1-359, looked up)
chain: MPIMGSSVYITVELAIAVLAILGNVLVCWAVWLNSNLQNVTNYFVVSLAAADIAVGVLAIPFAITISTGFCAACHGCLFIACFVLVLTQSSIFSLLAIAIDRYIAIRIPLRYNGLVTGTRAKGIIAICWVLSFAIGLTPMLGWNNCGQPKEGKNHSQGCGEGQVACLFEDVVPMNYMVYFNFFACVLVPLLLMLGVYLRIFLAARRQLKQMESQPLPGERARSTLQKEVHAAKSLAIIVGLFALCWLPLHIINCFTFFCPDCSHAPLWLMYLAIVLSHTNSVVNPFIYAYRIREFRQTFRKIIRSHVLRQQEPFKAAGTSARVLAAHGSDGEQVSLRLNGHPPGVWANGSAPHPAAAPN
notes: adenosine A2A receptor, human, C-terminus truncated at site N359, residues 355ERR357 substituted by 355AAA357; also called A2AR-ERR:AAA variant of A2AR-N359ΔC; N359ΔC ERR:AAA
B3 was tested, and the “dimer level (relative to monomer)” value [1] was 0.48 arbitrary units, the “total oligomer level (relative to monomer)” value [1] was 0.85 arbitrary units and the “HMW oligomer level (relative to monomer)” value (P29274) was “ERR:AAA: 0.38”.

B4: A2AR-C394X variant with leucine at 394 (receptor, human, UniProt P29274 1-412, looked up)
chain: MPIMGSSVYITVELAIAVLAILGNVLVCWAVWLNSNLQNVTNYFVVSLAAADIAVGVLAIPFAITISTGFCAACHGCLFIACFVLVLTQSSIFSLLAIAIDRYIAIRIPLRYNGLVTGTRAKGIIAICWVLSFAIGLTPMLGWNNCGQPKEGKNHSQGCGEGQVACLFEDVVPMNYMVYFNFFACVLVPLLLMLGVYLRIFLAARRQLKQMESQPLPGERARSTLQKEVHAAKSLAIIVGLFALCWLPLHIINCFTFFCPDCSHAPLWLMYLAIVLSHTNSVVNPFIYAYRIREFRQTFRKIIRSHVLRQQEPFKAAGTSARVLAAHGSDGEQVSLRLNGHPPGVWANGSAPHPERRPNGYALGLVSGGSAQESQGNTGLPDVELLSHELKGVLPEPPGLDDPLAQDGAGVS
notes: also called A2AR-C394X (leucine)
B4: binds [1].

B5: A2AR-C394X variant with methionine at 394 (receptor, human, UniProt P29274 1-412, looked up)
chain: MPIMGSSVYITVELAIAVLAILGNVLVCWAVWLNSNLQNVTNYFVVSLAAADIAVGVLAIPFAITISTGFCAACHGCLFIACFVLVLTQSSIFSLLAIAIDRYIAIRIPLRYNGLVTGTRAKGIIAICWVLSFAIGLTPMLGWNNCGQPKEGKNHSQGCGEGQVACLFEDVVPMNYMVYFNFFACVLVPLLLMLGVYLRIFLAARRQLKQMESQPLPGERARSTLQKEVHAAKSLAIIVGLFALCWLPLHIINCFTFFCPDCSHAPLWLMYLAIVLSHTNSVVNPFIYAYRIREFRQTFRKIIRSHVLRQQEPFKAAGTSARVLAAHGSDGEQVSLRLNGHPPGVWANGSAPHPERRPNGYALGLVSGGSAQESQGNTGLPDVELLSHELKGVMPEPPGLDDPLAQDGAGVS
notes: also called A2AR-C394X (methionine)
B5: binds [1].

B6: A2AR-C394X variant with valine at 394 (receptor, human, UniProt P29274 1-412, looked up)
chain: MPIMGSSVYITVELAIAVLAILGNVLVCWAVWLNSNLQNVTNYFVVSLAAADIAVGVLAIPFAITISTGFCAACHGCLFIACFVLVLTQSSIFSLLAIAIDRYIAIRIPLRYNGLVTGTRAKGIIAICWVLSFAIGLTPMLGWNNCGQPKEGKNHSQGCGEGQVACLFEDVVPMNYMVYFNFFACVLVPLLLMLGVYLRIFLAARRQLKQMESQPLPGERARSTLQKEVHAAKSLAIIVGLFALCWLPLHIINCFTFFCPDCSHAPLWLMYLAIVLSHTNSVVNPFIYAYRIREFRQTFRKIIRSHVLRQQEPFKAAGTSARVLAAHGSDGEQVSLRLNGHPPGVWANGSAPHPERRPNGYALGLVSGGSAQESQGNTGLPDVELLSHELKGVVPEPPGLDDPLAQDGAGVS
notes: also called A2AR-C394X (valine)
B6: binds [1].

B7: A2AR-Q372ΔC (domain or fragment, human, UniProt P29274 1-372, looked up)
chain: MPIMGSSVYITVELAIAVLAILGNVLVCWAVWLNSNLQNVTNYFVVSLAAADIAVGVLAIPFAITISTGFCAACHGCLFIACFVLVLTQSSIFSLLAIAIDRYIAIRIPLRYNGLVTGTRAKGIIAICWVLSFAIGLTPMLGWNNCGQPKEGKNHSQGCGEGQVACLFEDVVPMNYMVYFNFFACVLVPLLLMLGVYLRIFLAARRQLKQMESQPLPGERARSTLQKEVHAAKSLAIIVGLFALCWLPLHIINCFTFFCPDCSHAPLWLMYLAIVLSHTNSVVNPFIYAYRIREFRQTFRKIIRSHVLRQQEPFKAAGTSARVLAAHGSDGEQVSLRLNGHPPGVWANGSAPHPERRPNGYALGLVSGGSAQ
notes: adenosine A2A receptor, human, C-terminus truncated at site Q372 (lacks residue C394)
In the case of B7, the “dimer level (relative to monomer) with 5 mM TCEP” value [2] is reported as 0.22 arbitrary units, the “dimer level (relative to monomer) without TCEP” value [2] is reported as 0.68 arbitrary units and the “total oligomer level (relative to monomer), SEC-separated monomer after redistribution” value [3] is reported as 1.4 arbitrary units. The “total oligomer level (relative to monomer), initial sample” value [3] was 1.49 arbitrary units.

B8: A2AR-G344ΔC (domain or fragment, human, UniProt P29274 1-344, looked up)
chain: MPIMGSSVYITVELAIAVLAILGNVLVCWAVWLNSNLQNVTNYFVVSLAAADIAVGVLAIPFAITISTGFCAACHGCLFIACFVLVLTQSSIFSLLAIAIDRYIAIRIPLRYNGLVTGTRAKGIIAICWVLSFAIGLTPMLGWNNCGQPKEGKNHSQGCGEGQVACLFEDVVPMNYMVYFNFFACVLVPLLLMLGVYLRIFLAARRQLKQMESQPLPGERARSTLQKEVHAAKSLAIIVGLFALCWLPLHIINCFTFFCPDCSHAPLWLMYLAIVLSHTNSVVNPFIYAYRIREFRQTFRKIIRSHVLRQQEPFKAAGTSARVLAAHGSDGEQVSLRLNGHPPG
notes: adenosine A2A receptor, human, C-terminus truncated at site G344
B8: binds [1].

B9: A2AR-G349ΔC (domain or fragment, human, UniProt P29274 1-349, looked up)
chain: MPIMGSSVYITVELAIAVLAILGNVLVCWAVWLNSNLQNVTNYFVVSLAAADIAVGVLAIPFAITISTGFCAACHGCLFIACFVLVLTQSSIFSLLAIAIDRYIAIRIPLRYNGLVTGTRAKGIIAICWVLSFAIGLTPMLGWNNCGQPKEGKNHSQGCGEGQVACLFEDVVPMNYMVYFNFFACVLVPLLLMLGVYLRIFLAARRQLKQMESQPLPGERARSTLQKEVHAAKSLAIIVGLFALCWLPLHIINCFTFFCPDCSHAPLWLMYLAIVLSHTNSVVNPFIYAYRIREFRQTFRKIIRSHVLRQQEPFKAAGTSARVLAAHGSDGEQVSLRLNGHPPGVWANG
notes: adenosine A2A receptor, human, C-terminus truncated at site G349
B9: binds [1].

B10: A2AR-P395ΔC (domain or fragment, human, UniProt P29274 1-395, looked up)
chain: MPIMGSSVYITVELAIAVLAILGNVLVCWAVWLNSNLQNVTNYFVVSLAAADIAVGVLAIPFAITISTGFCAACHGCLFIACFVLVLTQSSIFSLLAIAIDRYIAIRIPLRYNGLVTGTRAKGIIAICWVLSFAIGLTPMLGWNNCGQPKEGKNHSQGCGEGQVACLFEDVVPMNYMVYFNFFACVLVPLLLMLGVYLRIFLAARRQLKQMESQPLPGERARSTLQKEVHAAKSLAIIVGLFALCWLPLHIINCFTFFCPDCSHAPLWLMYLAIVLSHTNSVVNPFIYAYRIREFRQTFRKIIRSHVLRQQEPFKAAGTSARVLAAHGSDGEQVSLRLNGHPPGVWANGSAPHPERRPNGYALGLVSGGSAQESQGNTGLPDVELLSHELKGVCP
notes: adenosine A2A receptor, human, C-terminus truncated at site P395
B10: binds [1].

B11: A2AR-P354ΔC (domain or fragment, human, UniProt P29274 1-354, looked up)
chain: MPIMGSSVYITVELAIAVLAILGNVLVCWAVWLNSNLQNVTNYFVVSLAAADIAVGVLAIPFAITISTGFCAACHGCLFIACFVLVLTQSSIFSLLAIAIDRYIAIRIPLRYNGLVTGTRAKGIIAICWVLSFAIGLTPMLGWNNCGQPKEGKNHSQGCGEGQVACLFEDVVPMNYMVYFNFFACVLVPLLLMLGVYLRIFLAARRQLKQMESQPLPGERARSTLQKEVHAAKSLAIIVGLFALCWLPLHIINCFTFFCPDCSHAPLWLMYLAIVLSHTNSVVNPFIYAYRIREFRQTFRKIIRSHVLRQQEPFKAAGTSARVLAAHGSDGEQVSLRLNGHPPGVWANGSAPHP
notes: adenosine A2A receptor, human, C-terminus truncated at site P354
For B11, the “dimer level (relative to monomer)” value [1] was 0.19 arbitrary units and the “total oligomer level (relative to monomer)” value [1] was 0.62 arbitrary units.

B12: A2AR-C394S (receptor, human, UniProt P29274 1-412, looked up)
chain: MPIMGSSVYITVELAIAVLAILGNVLVCWAVWLNSNLQNVTNYFVVSLAAADIAVGVLAIPFAITISTGFCAACHGCLFIACFVLVLTQSSIFSLLAIAIDRYIAIRIPLRYNGLVTGTRAKGIIAICWVLSFAIGLTPMLGWNNCGQPKEGKNHSQGCGEGQVACLFEDVVPMNYMVYFNFFACVLVPLLLMLGVYLRIFLAARRQLKQMESQPLPGERARSTLQKEVHAAKSLAIIVGLFALCWLPLHIINCFTFFCPDCSHAPLWLMYLAIVLSHTNSVVNPFIYAYRIREFRQTFRKIIRSHVLRQQEPFKAAGTSARVLAAHGSDGEQVSLRLNGHPPGVWANGSAPHPERRPNGYALGLVSGGSAQESQGNTGLPDVELLSHELKGVSPEPPGLDDPLAQDGAGVS
notes: adenosine A2A receptor, human, with C394S; also called A2AR-C394X variant
B12: binds [1].

B13: A2AR-C394X variant with alanine at 394 (receptor, human, UniProt P29274 1-412, looked up)
chain: MPIMGSSVYITVELAIAVLAILGNVLVCWAVWLNSNLQNVTNYFVVSLAAADIAVGVLAIPFAITISTGFCAACHGCLFIACFVLVLTQSSIFSLLAIAIDRYIAIRIPLRYNGLVTGTRAKGIIAICWVLSFAIGLTPMLGWNNCGQPKEGKNHSQGCGEGQVACLFEDVVPMNYMVYFNFFACVLVPLLLMLGVYLRIFLAARRQLKQMESQPLPGERARSTLQKEVHAAKSLAIIVGLFALCWLPLHIINCFTFFCPDCSHAPLWLMYLAIVLSHTNSVVNPFIYAYRIREFRQTFRKIIRSHVLRQQEPFKAAGTSARVLAAHGSDGEQVSLRLNGHPPGVWANGSAPHPERRPNGYALGLVSGGSAQESQGNTGLPDVELLSHELKGVAPEPPGLDDPLAQDGAGVS
notes: also called A2AR-C394X (alanine)
B13: binds [1].

Reference: paper PMC8328514, “Homo-oligomerization of the human adenosine A2A receptor is driven by the intrinsically disordered C-terminus” (eLife, 2021)
